Assay results published in paper PMC3413123.

Columns and labels:
ParGβCopG = ParGβCopG (UniProt Q9KJ82); experiment: cross-linking
ParGβMetJ = ParGβMetJ (UniProt Q9KJ82); experiment: cross-linking

| Substance | stoichiometry N (ParGβCopG) | stoichiometry N (ParGβMetJ) |
| --- | --- | --- |
| ParGβCopG (from UniProt Q9KJ82 1-76) | 2 |  |
| ParGβMetJ (from UniProt Q9KJ82 1-76) |  | 2 |
